Results as given in the DeepSol protein solubility set.

Assay: soluble on expression in E. coli; label from the status in PepcDB or PDB records

| Sequence | soluble on expression in E. coli |
| --- | --- |
| SLGKEVATRATNDERCKILEQRLEQGMVFTEYERILKKRLVDGECSTARLPENAERNRFQDVLPYDDARVELVPTKENNTGYINASHIKVSVSGIEWDYIATQGPLQNTCQDFWQMVWEQGIAIIAMVTAEEEGGREKSFRYWPRLGSRHNTVTYGRFKITTRFRTDSGCYATTGLKMKHLLTGQERTVWHLQYTDWPEHGCPEDLKGFLSYLEEIQSVRRHTNSTSDPQSPNPPLLVHSSAGVGRTGVVILSEIMIACLEHNEVLDIPRVLDMLRQQRMMLVQTLCQYTFVYRVLIQFLKSSRLI | soluble |
| MGRINELRMISRVAQMYFSEHKRQAEIAQHLNLSQATVSRMLKRAEAEGIVRTSIIPPPGTYSDLEAQLRERFDLPEAIVVDCSEDRDGAIMARIGEAAAHFLEVTLSQNEIIGVSSWSQTIFKMVENIHPLKGAKARYIVQTLGGMGDPSVQTHATQITTRLARLTEAEPKLLPVPGVATSREAKLLMLADPFVRETIDLFGSITLAIVGVGAVEPSELLARSGNIFSTKELADLAQAGAVGDISLRFFDKDGKPVKTPLDDRVIGLPLENLSNVDRVIALAGGLKKTEAIAGALRTGVIDVLVTDKFTAERLVGQET | soluble |
| MGHHHHHHSHMVISWHLASDMDCVVTLTTDAARRIYDETQGRQQVLPLDSIYKKTLPDWKRSLPHFRNGKLYFKPIGDPVFARDLLTFPDNVEHCETVFGMLLGDTIILDNLDAANHYRKEVVKITHCPTLLTRDGDRIRSNGKFGGLQNKAPPMDKLRGMVFGAPVPKQCLILGEQIDLLQQYRSAVCKLDSVNKDLNSQLEYLRTPDMRKKKQELDEHEKNLKLIEEKLGMTPIRKCNDSLRHSPKVETTDCPVPPKRMRREATRQNRIITKTDV | not soluble |
| MGGASSPRIPSRRSAPYFTSLAFFGSSYIKVKNNRNKMLNPTDAASVALSFSVPFQMSGENPLSKLVEHCNKFVPGADIKMKAEPAKPESLLLPTDMNAYSPYLATPNWWVDQTGWPQLYPTVTTASSVDVYQNYLASSQLGGLLSSSVSAVASQLPAGINAQSALNITSQQRTIAKSFQHTKPMASSSSIPSVLTASNSSANSLVSSGSESVSARGTSGSGGTGKYPSSRTANKCECPNCHEIEKFGPNAIAARKRGVHNCHIAGCGKVYNKSSHLKAHLRWHSGERQMKKRSGDSS | not soluble |
| MSFPTSITDHPIVQEAVHRLDDLGDPRAGQTLTRCLNDTLARTIRPMPDGTAFVVTGDIPAMWLRDSSTQMMPYLALLKDDTALQHLLLAVLRRQFQQIAHDPYANAFNAEPSGRAHDPEDLCGDPWVWEQKYEVDSLAFPLLLAHRFWAATGRTDHVPGMLRTARTVISVWRTEQDHERLSTYRFRRENGPSSDTLPNAGRGTPVTRTGMTWSGFRPSDDACAFGYNVPANLCAAAALDGAAELAHHTHDTELAEDAARLAAELRAATARHGTVRHPDFGSIYAYEVDGNGNAVLMDDANMPGLLSLPLVANIPTTDPVYLATRGFVLSPRNPTWYRGTAAEGIGSPHTPDEHIWPIAIAVQGLTSNDTTERRWALTTLLATDAGTGQMHESFHKDDPHRFTRPWFSWANAMYAELALDTVGLGTRPLWQAGTLEHHHHHH | soluble |
| SNARGLGSELKDSIPVAELSASGPFESHDLLRKGFSCVKNELLPSHPLELSEKNFQLNQDKMNFSTLRNIQGLFAPLKLQMEFKAVQQVHRLPFLPSSNLSLDILRGNDETIGFEDILNDPSQSELMGEPHVMVEHKLGLL | soluble |
| MHYCPGCSHGVVHKLIAEVIEEMGLTEETIGIAPVGCSVFAYRYIDIDWQEAAHGRAPALATAVKRLNPSKLVFTYQGDGDLAAIGTAETIHAANRGENIAIIFINNGIYGMTGGQMAPTTLEGMVTATCPQGRNVELNGYPLKIADMLALLDGTCLVTRQTVHNAAAVRKTKKMIQKAFENSMNRKGTSIVEVVSTCNTGWKMSPAASNDWMMENMAKQYPLGDLKNID | not soluble |
| MESVTRIKVRYAETDQMGVVHHSVYAVYLEAARVDFLERAGLPYHRVEARGVFFPVVELGLTFRAPARFGEVVEVRTRLAELSSRALLFRYRVEREGVLLAEGFTRHLCQVGERAARIPEDIYRALSVLHLK | soluble |
| MVKIGVCGPVGSGKTALIEALTRHMSKDYDMAVITNDIYTKEDAEFMCKNSVMPRERIIGVETGGCPHTAIREDASMNLEAVEEMHGRFPNLELLLIESGGDNLSATFNPELADFTIFVIDVAEGDKIPRKGGPGITRSDLLVINKIDLAPYVGADLKVMERDSKKMRGEKPFIFTNIRAKEGLDDVIAWIKRNALLEDLEHHHHHH | soluble |
| MSLLTLLRPATVQDCKDIFKVHLHSVQYTCILSYNEHALKVWEGLLNTESYLPTISDPDKALWVAEYKGNIQGFFQIDCQEAQLDALYVHPLFHNLGLGTALLHQAETIAHKSGLSFLKLYASLNSVPFYLLNRYESLGSAVLQLDPSIKIKCELMRKHL | not soluble |
| PNARSQPSKTLFVKGLSEDTTEETLKESFDGSVRARIVTDRETGSSKGFGFVDFNSEEDAKAAKEAMEDGEIDGNKVTLDWAKPKGEGG | soluble |
| MHHHHHHSSGVDLGTENLYFQSNAMNFKLNNTLSNEINTLIIGIPEHLNQLERISFNHIDITESLERLKHQHIIGSKVGKIYTTAFDVQDQTYRLITVGLGNLKTRSYQDMLKIWGHLFQYIKSEHIEDTYLLMDSFISKYDQLSDVLMACGIQSERATYEFDHYKSSKKAPFKTNLNLISESLIELDFIHEGISIGQSINLARDFSNMPPNVLTPQTFAEDIVNHFKNTKVKVDVKDYDTLVSEGFGLLQAVGKGSKHKPRLVTITYNGKDKDEAPIALVGKGITYDSGGYSIKTKNGMATMKFDMCGAANVVGIIEAASRLQLPVNIVGVLACAENMINEASMKPDDVFTALSGETVEVMNTDAEGRLVLADAVFYANQYQPSVIMDFATLTGAAIVALGDDKAAAFESNSKVILNDILQISSEVDEMVFELPITATERASIKHSDIADLVNHTNGQGKALFAASFVTHFSGQTPHIHFDIAGPATTNKASYNGPKGPTGFMIPTIVQWLKQQ | soluble |
| MKIYLVGGAVRDALLGLPVKDKDWVVVGATPQEMLDAGYQQVGRDFPVFLHPQTHEEYALARTERKSGSGYTGFTCYAAPDVTLEADLQRRDLTINALARDDAGQIIDPYHGRRDLEARLLRHVSPAFGEDPLRVLRVARFAARYAHLSFRIADETLALMREMTAAGELEHLTPERVWKETENALTTRNPQVYFQVLRDCGALRVLFPEIDALFGVPAPAKWHPEIDTGVHTLMTLSMAAMLSPQLDVRFATLCHDLGKGLTPKNLWPRHHGHGPAGVKLVEQLCQRLRVPNDLRDLAKLVAEYHDLIHTFPILQPKTIVKLFDAIDAWRKPQRVEQIALTSEADVRGRTGFEASDYPQGRWLREAWQVAQAVPTKEVVEAGFKGIEIREELTKRRIAAVANWKEKRCPNPAS | not soluble |
| MSIQRFTPEFKAEAVRQVIERGYSVAEIAAGFGVSTHSLYKWVKAVTPDKSEKQASELLEAKSEILRLRAQMRRLEEERDILKKPSGSSHTAWRPLEHHHHHH | not soluble |
| MAHHHHHHMGTLEAQTQGPGSMMETDATAEAAAVAYEDIITRFGAAPITDDLLKRFETVTGTKAHPMLRRGLFYAHRDFEEFLSYYEKGHPIYIYTGRGPSSGALHLGHLLPFIFTKYLQDAFKCYVVIQITDDEKFLRNRSLSYAEVDSYTRENIKDIIACGFDPDKTFIFINSQYLSLKNRYRFSCLVDRMLPISQLRASFGFSNDANVGYAAFPPKQMLPVYSTYFDGLPFTRVPLPVGTGNEDAADAVSTKKASKKTPKKDAVLSPVHVVEELFPDSKRYQKAMCLIASGIEQDPYFRLARDLAPRMGHPKNAYLLGKFLPGLQGSGTKMSASDPNSAIYLTDTPAQIKNKINRYAFSGGRDTEEEHRAFGADLSVDVSVRYLEVFMKDDAELEKLKADYKTGKLLTGEVKATLIGILQGLIKEHAERRDKVDTTMIESFTVKKELQ | soluble |
| MKIRSPIVSVLGHVDHGKTTLLDHIRGSAVASREAGGITQHIGATEIPMDVIEGICGDFLKKFSIRETLPGLFFIDTPGHEAFTTLRKRGGALADLAILIVDINEGFKPQTQEALNILRMYRTPFVVAANKIDRIHGWRVHEGRPFMETFSKQDIQVQQKLDTKVYELVGKLHEEGFESERFDRVTDFASQVSIIPISAITGEGIPELLTMLMGLAQQYLREQLKIEEDSPARGTILEVKEETGLGMTIDAVIYDGILRKDDTIAMMTSKDVISTRIRSLLKPRPLEEMRESRKKFQKVDEVVAAAGIKIVAPGIDDVMAGSPLRVVTDPEKVREEILSEIEDIKIDTDEAGVVVKADTLGSLEAVVKILRDMYVPIKVADIGDVSRRDVVNAGIALQEDRVYGAIIAFNVKVIPSAAQELKNSDIKLFQGNVIYRLMEEYEEWVRGIEEEKKKKWMEAIIKPASIRLIPKLVFRQSKPAIGGVEVLTGVIRQGYPLMNDDGETVGTVESMQDKGENLKSASRGQKVAMAIKDAVYGKTIHEGDTLYVDIPENHYHILKEQLSGDLTDEELDLMDKIAEIKRKKNPDWGMKAPF | soluble |
| NVPELIGAQAHAVNVILDAETAYPNLIFSDDLKSVRLGNKWERLPDGPQRFDSCIIVLGSPSFLSGRRYWEVEVGDKTAWILGACKTSISRKGNMTLSPENGYWVVIMMKENEYQASSVPPTRLLIKEPPKRVGIFVDYRVGSISFYNVTARSHIYTFASCSFSGPLQPIFSPGTRDGGKNTAPLTICPVG | soluble |
| MGSDKIHHHHHHMSDLTVNDGSYQQLLDRIGECLALGQQRSFEQVNSVLVETYWQIGRYIVEFEQAGKERAEYGSKLLQVLSRDLKAAYGKGFSRSNLQYMRLFYLNYENCQTLSGKLSWSHYTELLAISDDLARSFYEQQCIQDRWSVRELKRQKDSALFERVALSKDRAEILALAKDGQRIESARDVVKDPYVFEFLDLPDRNYRESELENRLIAELEKFLLELGKGFAFIGQQYRITLNNTHFFVDLVFYHRILKCFVLIDLKTRAVSHQDIGQMNMYLNYFRAEENMEDDNEPIGIVLARDKDEILVEYAKGGISNQLFVSRYQLYLPDPEVLKQELKRLLSVNDG | not soluble |
| MVREDRSTWKANYFTKLVELFEEYPKCLLVGVDNVGSKQMQEIRQAMRGHAEILMGKNTMIRKALRGHLGKNPSLEKLLPHIVENVGFVFTKEDLGEIRSKLLENRKGAPAKAGAIAPCDVKLPPQNTGMGPEKTSFFQALQIPTKIARGTIEILNDVHLIKEGDKVGASESALLNMLGVTPFSYGLVVRQVYDDGTLYTPEVLDMTTEELRKRFLSGVRNVASVSLAVNYPTLASVAHSLANGLQNMLGVAAVTDVSFKEAETIKAFIADPSKFAAAAPAAAAAPAAAAPAAKKEEPKEESDDDMGFGLFD | not soluble |
| MLRLQMTDGHISCTAVEFSYMSKISLNTPPGTKVKLSGIVDIKNGFLLLNDSNTTVLGGEVEHLIEKWELQRSLSKHNRSNIGTEGGPPPFVPFGQCVSRVQVDSRELDRRKTLQVTMPVKPTNDNDEFEKQRTAAIAEVAKSKETKTFGGGGGGARSNLNMNAAGNRNREVLQKEKSTKSEGKHEGVYRELVDEKALKHITEMGFSKEASRQALMDNGNNLEAALNVLLTSNKQKPVMGPPLRGRGKGRGRIRSEDEEDLGNARPSAPSTLFDFLESKMGTLNVEEPKSQPQQLHQGQYRSSNTEQNGVKDNNHLRHPPRNDTRQPRNEKPPRFQRDSQNSKSVLEGSGLPRNRGSERPSTSSVSEVWAEDRIKCDRPYSRYDRTKDTSYPLGSQHSDGAFKKRDNSMQSRSGKGPSFAEAKENPLPQGSVDYNNQKRGKRESQTSIPDYFYDRKSQTINNEAFSGIKIEKHFNVNTDYQNPVRSNSFIGVPNGEVEMPLKGRRIGHIKPAGPVTAVPCDDKIFYNSGPKRRSGPIKPEKILESSIPMEYAKMWKPGDECFALYWEDNKFYRAEVEALHSSGMTAVVKFIDYGNYEEVLLSNIKPIQTEAWEEEGTYDQTLEFRRGGDGQPRRSTRPTQQFYQPPRARN | not soluble |
